In patent US20120316071A1 (published 2012) one finds ECL signal data, which are given here for one molecule.

The target of test [1] is T1, rHuman IGF-1 sR, (IGF-1 sR), CF (R&D Systems Cat#391-GR) (human, UniProt P08069 31-932).
T1 construct: Bought soluble receptor; also called insulin-like growth factor-1 soluble receptor
As to the kind of experiment: Multispot ECL (MSD), antigen spotted on plate, Fab 15 nM; blank spot 536.

Test [2] deals with T2, Recombinant Human DLL4 (R&D Systems Cat#1506-D4/CF) (human, UniProt Q9NR61 27-524).
T2 construct: it includes the signal peptide (amino acids 1-25), the transmembrane region and the cytoplasmic domain; also called delta-like protein 4; rHuman DLL4
The description is as above.

In test [3] the target is T3, rHuman ErbB2/Fc Chimera, CF (R&D Systems Cat#1129-ER) (human, UniProt P04626 23-652).
T3 construct: Bought recombinant protein; also called human epidermal growth factor 2 receptor; Fc part of the bought chimera not given
The description is as above.

Test [4] deals with T4, rHuman CD44/Fc Chimera, CF (R&D Systems Cat#3660-CD) (human, UniProt P16070 21-220).
T4 construct: Bought recombinant protein; Fc part of the bought chimera not given
The test is described as above.

Test [5] has as its target T1, rHuman IGF-1 sR, (IGF-1 sR), CF (R&D …). As to the kind of experiment: Multispot ECL (MSD), antigen spotted on plate, Fab 3.75 nM; blank spot 191.
Test [6] addresses T2, Recombinant Human DLL4 (R&D Systems …). Described as above.
In test [7] the target is T3, rHuman ErbB2/Fc Chimera, CF (R&D …). The test is described as above.
Test [8] has as its target T4, rHuman CD44/Fc Chimera, CF (R&D Systems …). The test is described as above.
For test [9], the target named is T1, rHuman IGF-1 sR, (IGF-1 sR), CF (R&D …). Nature of the test: Multispot ECL (MSD), antigen spotted on plate, Fab 0.9375 nM; blank spot 153.
Test [10] has as its target T2, Recombinant Human DLL4 (R&D Systems …). Described as above.
For test [11], the target named is T3, rHuman ErbB2/Fc Chimera, CF (R&D …). The test is described as above.
Test [12] has as its target T4, rHuman CD44/Fc Chimera, CF (R&D Systems …). Described as above.
The target of test [13] is T1, rHuman IGF-1 sR, (IGF-1 sR), CF (R&D …). Nature of the test: Multispot ECL (MSD), antigen spotted on plate, Fab 60 nM; blank spot 1433.
In test [14] the target is T2, Recombinant Human DLL4 (R&D Systems …). The test is described as above.
For test [15], the target named is T3, rHuman ErbB2/Fc Chimera, CF (R&D …). The description is as above.
Test [16] has as its target T4, rHuman CD44/Fc Chimera, CF (R&D Systems …). The test is described as above.

B1: Fab VH1-3_IGHD4-23*01_IGHJ4*01 & L12_IGKJ1*01 (Fab, V domains shown)
VH: QVQLVQSGAEVKKPGASVKVSCKASGYTFTSYAMHWVRQAPGQRLEWMGWSNAGNGNTKYSQEFQGRVTITRDTSASTAYMELSSLRSEDMAVYYCARDDYGGNSDYFDYWGQGTLVTVSS
VL: not shown
For B1, the ECL signal was determined as 859 in test [1]; 7730 in test [2]; 740 in [3]; 748 in test [4]; 314 in [5]; 1570 in [6]. In addition, the ECL signal in [7] was found to be 291; in test [8], 307; in test [9] it was 204; in [10], 453; in [11] it was 268; in test [12] it was 251. Moreover, the ECL signal in test [13] came to 2670; in [14], 17300; in test [15], 2160; in test [16] it was 2360.
